These sequences were tested on AncSZ (assay: phosphorylation enrichment, bacterial display (enrichment ratio); higher = better substrate or ligand; peptides without Tyr show the background).
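Note: 11-residue human phosphosite peptides and single-mutation variants displayed on the E. coli surface, counted by deep sequencing, each peptide's frequency after selection divided by its frequency in the unselected input library; frequency after pTyr selection over input frequency; kinase dosed for 20-30% of maximal phosphorylation in three min.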

Going from ILGLEYSLRVP [HELZ2_Y1304] to LWEGSYGKVKE [STK11_Y60_G56W], the phosphorylation enrichment falls from 1.03 to 0.872.

First: LANNEYYFQVC
Second: VVIVLYFSLWK [SLC6A2_Y249]
The phosphorylation enrichment of the first is higher: 3.4 for the first, 0.703 for the second.

First: SEPDLYFDPRG [PKP1_Y160_C161Y_YF]
Second: AEFGLYAAMVR [VSX2_Y222_G223A_YF]
The phosphorylation enrichment of the first is higher: 2.86 for the first, 1.29 for the second.

Going from KELAKYYKLHH [AK7_Y390_N389K] to YIPSNYVAEDR [FRK_Y104], the phosphorylation enrichment rises from 0.472 to 0.921.

Compared with FCRITYDIFPF [INTS13_Y67_M66T_YF], SYCYRYRCAPR [SUMF1_Y344_A348P] is lower in phosphorylation enrichment: 1.66 for the first, 0.644 for the second.

Going from CTTIHYNYMCH [TP53_Y234_N239H] to TLEKYYFAFPG [SLC1A1_Y51_F50Y], the phosphorylation enrichment rises from 0.751 to 1.75.

Going from TINPIHEHVGF [CHN1_Y143_Y143H_YF] to IHFAIYLLKYS [ARMC9_Y107], the phosphorylation enrichment rises from 0.433 to 1.09.

Compared with NTGDYCDLYGG [PTPN11_Y63_Y63C], QCTSDYPEHVC [SART3_Y541] is lower in phosphorylation enrichment: 2.71 for the first, 1.36 for the second.

Each sequence was assayed against Fes (UniProt P07332) in the same assay as above.
Fes, sequence (P07332 whole entry, looked up): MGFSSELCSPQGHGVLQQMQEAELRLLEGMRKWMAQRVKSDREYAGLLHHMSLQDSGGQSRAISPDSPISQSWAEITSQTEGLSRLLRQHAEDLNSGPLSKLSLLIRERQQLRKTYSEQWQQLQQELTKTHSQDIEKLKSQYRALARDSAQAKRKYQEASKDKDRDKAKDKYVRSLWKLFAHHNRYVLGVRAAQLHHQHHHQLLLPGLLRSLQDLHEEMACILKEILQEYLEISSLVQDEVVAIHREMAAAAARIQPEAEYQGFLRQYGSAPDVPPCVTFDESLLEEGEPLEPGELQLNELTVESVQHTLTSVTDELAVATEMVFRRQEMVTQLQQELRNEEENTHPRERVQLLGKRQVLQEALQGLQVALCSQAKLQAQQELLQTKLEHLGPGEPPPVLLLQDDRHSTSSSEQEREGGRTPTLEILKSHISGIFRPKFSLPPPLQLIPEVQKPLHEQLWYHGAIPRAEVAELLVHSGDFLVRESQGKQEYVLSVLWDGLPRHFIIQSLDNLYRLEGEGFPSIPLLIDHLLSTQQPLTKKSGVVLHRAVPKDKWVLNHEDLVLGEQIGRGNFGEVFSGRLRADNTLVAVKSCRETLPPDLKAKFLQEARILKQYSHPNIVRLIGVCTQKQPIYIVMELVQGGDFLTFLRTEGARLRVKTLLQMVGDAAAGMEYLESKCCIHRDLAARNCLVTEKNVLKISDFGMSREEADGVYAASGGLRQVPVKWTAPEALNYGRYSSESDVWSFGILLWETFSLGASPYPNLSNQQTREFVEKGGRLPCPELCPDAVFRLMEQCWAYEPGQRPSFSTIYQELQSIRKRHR

First: ILGLEYSLRVP [HELZ2_Y1304]
Second: LWEGSYGKVKE [STK11_Y60_G56W]
The phosphorylation enrichment of the first is lower: 1.22 for the first, 2.28 for the second.

First: LANNEYYFQVC
Second: VVIVLYFSLWK [SLC6A2_Y249]
The phosphorylation enrichment of the first is higher: 1.69 for the first, 1.13 for the second.

First: SEPDLYFDPRG [PKP1_Y160_C161Y_YF]
Second: AEFGLYAAMVR [VSX2_Y222_G223A_YF]
The phosphorylation enrichment of the first is lower: 1.14 for the first, 1.24 for the second.

First: KELAKYYKLHH [AK7_Y390_N389K]
Second: YIPSNYVAEDR [FRK_Y104]
The phosphorylation enrichment of the first is lower: 0.472 for the first, 0.954 for the second.

Compared with FCRITYDIFPF [INTS13_Y67_M66T_YF], SYCYRYRCAPR [SUMF1_Y344_A348P] is lower in phosphorylation enrichment: 1.6 for the first, 0.572 for the second.

First: CTTIHYNYMCH [TP53_Y234_N239H]
Second: TLEKYYFAFPG [SLC1A1_Y51_F50Y]
The phosphorylation enrichment of the first is lower: 0.855 for the first, 1.09 for the second.

Going from TINPIHEHVGF [CHN1_Y143_Y143H_YF] to IHFAIYLLKYS [ARMC9_Y107], the phosphorylation enrichment rises from 0.619 to 1.16.

Going from NTGDYCDLYGG [PTPN11_Y63_Y63C] to QCTSDYPEHVC [SART3_Y541], the phosphorylation enrichment rises from 1.16 to 1.44.

These sequences were tested on Fer (mouse) in the same assay as above.

First: ILGLEYSLRVP [HELZ2_Y1304]
Second: LWEGSYGKVKE [STK11_Y60_G56W]
The phosphorylation enrichment of the first is lower: 0.48 for the first, 0.647 for the second.

First: LANNEYYFQVC
Second: VVIVLYFSLWK [SLC6A2_Y249]
The phosphorylation enrichment of the first is higher: 1.11 for the first, 0.314 for the second.

First: SEPDLYFDPRG [PKP1_Y160_C161Y_YF]
Second: AEFGLYAAMVR [VSX2_Y222_G223A_YF]
The phosphorylation enrichment of the first is lower: 0.841 for the first, 1.4 for the second.

Going from KELAKYYKLHH [AK7_Y390_N389K] to YIPSNYVAEDR [FRK_Y104], the phosphorylation enrichment rises from 0.383 to 0.434.

Going from FCRITYDIFPF [INTS13_Y67_M66T_YF] to SYCYRYRCAPR [SUMF1_Y344_A348P], the phosphorylation enrichment falls from 0.594 to 0.528.

Going from CTTIHYNYMCH [TP53_Y234_N239H] to TLEKYYFAFPG [SLC1A1_Y51_F50Y], the phosphorylation enrichment rises from 0.597 to 0.632.

Compared with TINPIHEHVGF [CHN1_Y143_Y143H_YF], IHFAIYLLKYS [ARMC9_Y107] is higher in phosphorylation enrichment: 0.397 for the first, 0.486 for the second.

First: NTGDYCDLYGG [PTPN11_Y63_Y63C]
Second: QCTSDYPEHVC [SART3_Y541]
The phosphorylation enrichment of the first is higher: 1.48 for the first, 0.668 for the second.

Each sequence was assayed against FGFR3 (UniProt P22607) in the same assay as above.
FGFR3, sequence (P22607 whole entry, looked up): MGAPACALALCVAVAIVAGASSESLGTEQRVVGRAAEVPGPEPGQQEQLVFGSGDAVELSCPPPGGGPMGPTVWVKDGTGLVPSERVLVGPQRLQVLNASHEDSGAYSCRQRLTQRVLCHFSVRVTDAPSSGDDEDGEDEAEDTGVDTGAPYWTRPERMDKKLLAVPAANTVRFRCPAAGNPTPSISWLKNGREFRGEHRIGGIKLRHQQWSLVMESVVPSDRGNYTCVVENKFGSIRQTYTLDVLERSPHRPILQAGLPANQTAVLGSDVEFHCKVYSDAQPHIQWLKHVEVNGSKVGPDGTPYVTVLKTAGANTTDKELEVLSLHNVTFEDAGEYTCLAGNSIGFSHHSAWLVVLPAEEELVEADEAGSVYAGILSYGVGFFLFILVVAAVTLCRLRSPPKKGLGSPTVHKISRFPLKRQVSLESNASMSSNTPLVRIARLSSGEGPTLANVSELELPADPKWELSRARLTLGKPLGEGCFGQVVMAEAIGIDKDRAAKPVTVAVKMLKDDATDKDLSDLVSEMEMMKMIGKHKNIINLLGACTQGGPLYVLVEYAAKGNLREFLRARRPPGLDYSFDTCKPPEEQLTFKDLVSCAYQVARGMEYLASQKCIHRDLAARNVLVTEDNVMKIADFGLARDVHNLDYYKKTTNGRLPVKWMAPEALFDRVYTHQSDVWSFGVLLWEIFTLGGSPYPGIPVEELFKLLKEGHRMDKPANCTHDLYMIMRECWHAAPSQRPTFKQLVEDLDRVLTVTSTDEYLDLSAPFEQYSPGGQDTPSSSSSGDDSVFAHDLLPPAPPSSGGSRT

Compared with ILGLEYSLRVP [HELZ2_Y1304], LWEGSYGKVKE [STK11_Y60_G56W] is higher in phosphorylation enrichment: 0.637 for the first, 0.77 for the second.

Going from LANNEYYFQVC to VVIVLYFSLWK [SLC6A2_Y249], the phosphorylation enrichment falls from 12.9 to 0.459.

Compared with SEPDLYFDPRG [PKP1_Y160_C161Y_YF], AEFGLYAAMVR [VSX2_Y222_G223A_YF] is lower in phosphorylation enrichment: 6.9 for the first, 0.888 for the second.

Compared with KELAKYYKLHH [AK7_Y390_N389K], YIPSNYVAEDR [FRK_Y104] is higher in phosphorylation enrichment: 0.418 for the first, 0.72 for the second.

Going from FCRITYDIFPF [INTS13_Y67_M66T_YF] to SYCYRYRCAPR [SUMF1_Y344_A348P], the phosphorylation enrichment falls from 1.05 to 0.716.

First: CTTIHYNYMCH [TP53_Y234_N239H]
Second: TLEKYYFAFPG [SLC1A1_Y51_F50Y]
The phosphorylation enrichment of the first is lower: 0.706 for the first, 12 for the second.

Compared with TINPIHEHVGF [CHN1_Y143_Y143H_YF], IHFAIYLLKYS [ARMC9_Y107] is higher in phosphorylation enrichment: 0.441 for the first, 0.686 for the second.

Compared with NTGDYCDLYGG [PTPN11_Y63_Y63C], QCTSDYPEHVC [SART3_Y541] is lower in phosphorylation enrichment: 4.75 for the first, 0.969 for the second.

Reference: the supplement of paper PMC10065799, “High-throughput profiling of sequence recognition by tyrosine kinases and SH2 domains using bacterial peptide display” (eLife, 2023)
